Target: EEEV PE6 virus-like particle (Eastern equine encephalitis virus, strain PE6)
Experiment: BLI

Substance | Kd [µM]
ApoER2_(iso2) LA1-3-Fc (Fc fusion) | 0.705
S. vulgaris VLDLR LA1-8-Fc (Fc fusion) | 0.011
VLDLR LA1-2-Fc (from UniProt P98155-1 28-113) (Fc fusion) | 0.505
VLDLR LA1-3-Fc (from UniProt P98155-1 28-152) (Fc fusion) | 0.363
VLDLR LA2-3-Fc (from UniProt P98155-1 70-151) (Fc fusion) | 1.8
VLDLR LA2-4-Fc (from UniProt P98155-1 70-190) (Fc fusion) | 1.1
VLDLR LA2-5-Fc (from UniProt P98155-1 70-231) (Fc fusion) | 0.0425
VLDLR LA3-4-Fc (from UniProt P98155-1 111-190) (Fc fusion) | 3.9
VLDLR LA3-5-Fc (from UniProt P98155-1 111-236) (Fc fusion) | 0.0323
VLDLR LA3-6-Fc (from UniProt P98155-1 111-276) (Fc fusion) | 0.0715
VLDLR LA4-5-Fc (from UniProt P98155-1 152-236) (Fc fusion) | 11.9
VLDLR LA4-6-Fc (from UniProt P98155-1 152-275) (Fc fusion) | 2.3
VLDLR LA5-6-Fc (from UniProt P98155-1 191-275) (Fc fusion) | 4.2

— article PMC11316819
